The test concerns the target His-tagged luciferase, heat-aggregated on the BLI sensor [luciferase: P08659]. The test can be described thus: BLI; protein aggregate immobilised on the sensor (His-tagged luciferase on Ni-NTA); Ssa1 variant together with Sis1 WT in solution, 1 µM each unless specified differently; buffer A (25 mM Hepes-KOH pH 8.0, 75 mM KCl, 15 mM MgCl2) with 2 mM DTT and 5 mM ATP; the signal is that of both chaperones. In general terms: In BLI a coated tip is dipped into the sample, and binding shifts an interference pattern.

Sequence of Ssa1 (P10591 whole entry): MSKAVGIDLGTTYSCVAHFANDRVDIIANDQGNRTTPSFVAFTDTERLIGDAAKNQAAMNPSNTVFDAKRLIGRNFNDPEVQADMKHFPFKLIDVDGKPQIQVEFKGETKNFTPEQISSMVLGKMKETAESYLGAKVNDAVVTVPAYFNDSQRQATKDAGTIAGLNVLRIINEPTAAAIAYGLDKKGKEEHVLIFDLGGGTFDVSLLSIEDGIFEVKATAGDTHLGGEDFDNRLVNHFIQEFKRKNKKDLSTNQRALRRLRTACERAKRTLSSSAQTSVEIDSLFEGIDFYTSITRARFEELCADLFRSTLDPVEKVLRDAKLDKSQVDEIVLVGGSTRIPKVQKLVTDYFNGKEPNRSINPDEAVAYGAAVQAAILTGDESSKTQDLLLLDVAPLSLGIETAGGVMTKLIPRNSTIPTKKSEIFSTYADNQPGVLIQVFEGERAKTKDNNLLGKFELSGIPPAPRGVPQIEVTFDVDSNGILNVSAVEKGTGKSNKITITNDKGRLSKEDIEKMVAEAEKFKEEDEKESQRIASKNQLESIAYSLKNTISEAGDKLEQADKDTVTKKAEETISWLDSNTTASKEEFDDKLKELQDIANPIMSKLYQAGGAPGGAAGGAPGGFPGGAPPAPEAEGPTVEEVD
Sequence of His-tagged luciferase, heat-aggregated on the BLI sensor [luciferase: P08659] (P08659 whole entry): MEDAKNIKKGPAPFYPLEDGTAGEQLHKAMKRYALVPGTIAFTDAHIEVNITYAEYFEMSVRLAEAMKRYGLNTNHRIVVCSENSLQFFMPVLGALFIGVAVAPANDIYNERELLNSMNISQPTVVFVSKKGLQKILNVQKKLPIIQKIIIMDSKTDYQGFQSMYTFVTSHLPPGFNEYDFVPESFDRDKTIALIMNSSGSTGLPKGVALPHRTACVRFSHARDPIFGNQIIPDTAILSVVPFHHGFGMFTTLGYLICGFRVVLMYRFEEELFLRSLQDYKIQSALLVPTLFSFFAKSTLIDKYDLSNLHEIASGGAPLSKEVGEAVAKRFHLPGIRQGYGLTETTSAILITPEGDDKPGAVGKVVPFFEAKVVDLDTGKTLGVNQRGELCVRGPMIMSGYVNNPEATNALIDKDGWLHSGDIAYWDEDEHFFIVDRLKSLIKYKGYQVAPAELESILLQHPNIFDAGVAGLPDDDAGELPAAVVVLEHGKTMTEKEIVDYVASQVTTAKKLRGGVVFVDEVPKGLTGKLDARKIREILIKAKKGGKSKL

In the case of “Ssa1 (from UniProt P10591 1-642) (natural protein)”, the BLI layer thickness (Sis1 and Ssa1 together) came out at 7 nm.

The record behind these values is publication PMC8670446.
